According to article PMC6269424:

Conditions: O-GlcNAc at T84

Substance	expression_or_secretion
PPARγ2: adipocyte-specific OGT knockout (FKO)	decreases
PPARγ2: T84A	decreases
